Test results taken from paper PMC5292662, “PKU mutation p.G46S prevents the stereospecific binding of L‐phenylalanine to the dimer of human phenylalanine hydroxylase regulatory domain” (FEBS Open Bio, 2017).

Target: the molecule itself
Experiment: SEC; HiLoad Superdex 200 HR column (1.6 cm × 60 cm), 20 mM Na‐Hepes, 0.2 M NaCl, pH 7.0, 0.38 mL·min^−1, 4 °C; masses estimated from standard markers; dimer to monomers

| Protein | stoichiometry N |
| --- | --- |
| wt‐MBP‐(pep)Xa‐hPAH‐RD^1–120 fusion protein (domain or fragment, human, UniProt P00439 1-120, looked up, N-terminal regulatory domain (RD) of human phenylalanine hydroxylase (hPAH), residues 1-120 (stop signal introduced in codon 121), SwissProt P00439; From pMAL‐hPAH‐RD^1–120 (pMAL-c2 vector); a factor Xa cleavage peptide (pep)Xa lies between MBP and the RD; Isolated by SEC as a dimeric and a monomeric fraction; also called MBP‐hPAH‐RD^1–120; wt‐MBP‐hPAH‐RD; source: E. coli, purified (amylose …)) MSTAVLENPGLGRKLSDFGQETSYIEDNCNQNGAISLIFSLKEEVGALAKVLRLFEENDVNLTHIESRPSRLKKDEYEFFTHLDKRSLPALTNIIKILRHDIGATVHELSRDKKKDTVPW | 2 |
| MBP‐hPAH‐G46S‐RD^1–120 fusion protein (domain or fragment, human, UniProt P00439 1-120, looked up, From pMAL‐hPAH‐G46S‐RD^1–120; a factor Xa cleavage peptide lies between MBP and the RD; G46S is a mutation found in patients with phenylketonuria; also called hPAH‐G46S‐RD^1–120 dimer fusion protein; source: E. coli, purified (amylose resin, SEC); not shown: MBP, N-terminal, kept) MSTAVLENPGLGRKLSDFGQETSYIEDNCNQNGAISLIFSLKEEVSALAKVLRLFEENDVNLTHIESRPSRLKKDEYEFFTHLDKRSLPALTNIIKILRHDIGATVHELSRDKKKDTVPW | 2 |
